Test results: IntAct's records for PubMed 28514442

B1: WASH complex subunit 5 (Homo sapiens), Q12768 (parent)
chain: MLDFLAENNLCGQAILRIVSCGNAIIAELLRLSEFIPAVFRLKDRADQQKYGDIIFDFSYFKGPELWESKLDAKPELQDLDEEFRENNIEIVTRFYLAFQSVHKYIVDLNRYLDDLNEGVYIQQTLETVLLNEDGKQLLCEALYLYGVMLLVIDQKIEGEVRERMLVSYYRYSAARSSADSNMDDICKLLRSTGYSSQPGAKRPSNYPESYFQRVPINESFISMVIGRLRSDDIYNQVSAYPLPEHRSTALANQAAMLYVILYFEPSILHTHQAKMREIVDKYFPDNWVISIYMGITVNLVDAWEPYKAAKTALNNTLDLSNVREQASRYATVSERVHAQVQQFLKEGYLREEMVLDNIPKLLNCLRDCNVAIRWLMLHTADSACDPNNKRLRQIKDQILTDSRYNPRILFQLLLDTAQFEFILKEMFKQMLSEKQTKWEHYKKEGSERMTELADVFSGVKPLTRVEKNENLQAWFREISKQILSLNYDDSTAAGRKTVQLIQALEEVQEFHQLESNLQVCQFLADTRKFLHQMIRTINIKEEVLITMQIVGDLSFAWQLIDSFTSIMQESIRVNPSMVTKLRATFLKLASALDLPLLRINQANSPDLLSVSQYYSGELVSYVRKVLQIIPESMFTSLLKIIKLQTHDIIEVPTRLDKDKLRDYAQLGPRYEVAKLTHAISIFTEGILMMKTTLVGIIKVDPKQLLEDGIRKELVKRVAFALHRGLIFNPRAKPSELMPKLKELGATMDGFHRSFEYIQDYVNIYGLKIWQEEVSRIINYNVEQECNNFLRTKIQDWQSMYQSTHIPIPKFTPVDESVTFIGRLCREILRITDPKMTCHIDQLNTWYDMKTHQEVTSSRLFSEIQTTLGTFGLNGLDRLLCFMIVKELQNFLSMFQKIILRDRTVQDTLKTLMNAVSPLKSIVANSNKIYFSAIAKTQKIWTAYLEAIMKVGQMQILRQQIANELNYSCRFDSKHLAAALENLNKALLADIEAHYQDPSLPYPKEDNTLLYEITAYLEAAGIHNPLNKIYITTKRLPYFPIVNFLFLIAQLPKLQYNKNLGMVCRKPTDPVDWPPLVLGLLTLLKQFHSRYTEQFLALIGQFICSTVEQCTSQKIPEIPADVVGALLFLEDYVRYTKLPRRVAEAHVPNFIFDEFRTVL

Variants of: B1
Conditions: with pcna_human PCNA

effect of a mutation on the interaction	Variant
with no effect	L619F
with no effect	N471D
with no effect	V626F
